± gives the uncertainty stated by the source.
B1: 1-phosphatidylinositol 4,5-bisphosphate phosphodiesterase gamma-2, residues 772 to 827; numbered along this chain, P16885 (parent)
chain: RTVKALYDYKAKRSDELSFCRGALIHNVSKEPGGWWKGDYGTRIQQYFPSNYVEDI

Variants of: B1
Assay: abundance fitness (aPCA) (normalised: wild type 0, dead -1); higher = more abundant; growth selection in yeast, the domain comes from the species named
Settings: Homo sapiens

Abundance fitness, by site and new letter:
G33: A -0.547 ± 0.18 | F -0.203 ± 0.17 | Y -0.293 ± 0.064 | R -0.434 ± 0.061 | E -0.274 ± 0.21 | C -0.108 ± 0.087 | K -0.781 ± 0.47 | S -0.114 ± 0.049 | W -0.258 ± 0.092 | D -0.168 ± 0.055 | Q -0.556 ± 0.34 | T -0.421 ± 0.15 | N -0.102 ± 0.067 | H -0.277 ± 0.15 | V -0.82 ± 0.2 | L -0.408 ± 0.07 | P -0.699 ± 0.12
S29: F 0.151 ± 0.28
I44: E -0.133 ± 0.091 | V 0.043 ± 0.064 | K -0.008 ± 0.14 | M 0.019 ± 0.064 | P -0.845 ± 0.47 | A -0.196 ± 0.05 | S -0.454 ± 0.12 | L -0.111 ± 0.076 | G -0.811 ± 0.11 | T 0.191 ± 0.08 | Q -0.246 ± 0.12 | F -0.237 ± 0.16 | C -0.074 ± 0.069 | Y -0.116 ± 0.1 | W -0.384 ± 0.081 | D -0.64 ± 0.34 | N -0.224 ± 0.15 | H 0.026 ± 0.084
Q46: Y -0.223 ± 0.17 | F -0.274 ± 0.1 | N -0.114 ± 0.16 | L -0.041 ± 0.062 | C -0.193 ± 0.11 | T -0.391 ± 0.097 | E -0.684 ± 0.39 | V -0.653 ± 0.092 | P -0.866 ± 0.27 | A 0.053 ± 0.06 | K -0.067 ± 0.097 | D -0.673 ± 0.21 | M 0.006 ± 0.075 | R -0.175 ± 0.073 | S 0.054 ± 0.077 | G 0.086 ± 0.071 | W -0.367 ± 0.086
K37: F -0.371 ± 0.21 | A -0.622 ± 0.082 | C -0.318 ± 0.1 | Y -0.301 ± 0.39 | W -0.908 ± 0.22 | G -0.887 ± 0.3 | M -0.548 ± 0.15 | R -0.091 ± 0.067 | P -0.617 ± 0.19 | Q -0.407 ± 0.15 | D -0.486 ± 0.49 | T -0.32 ± 0.14 | V -0.213 ± 0.048 | L -0.276 ± 0.077 | E -0.757 ± 0.49 | I -0.301 ± 0.17
G38: R -0.959 ± 0.14 | L -1.11 ± 0.2 | V -0.851 ± 0.2 | E -0.595 ± 0.17 | S -1 ± 0.18 | A -0.83 ± 0.27 | W -0.803 ± 0.19 | T -0.821 ± 0.47 | I -0.765 ± 0.47 | K -1.01 ± 0.44
E31: A -0.1 ± 0.065 | Y -0.05 ± 0.069 | S 0.002 ± 0.073 | K -0.135 ± 0.11 | H -0.265 ± 0.14 | I -0.174 ± 0.12 | V -0.099 ± 0.073 | D -0.22 ± 0.086 | P -0.291 ± 0.12 | W 0.036 ± 0.15 | M -0.009 ± 0.1 | Q -0.071 ± 0.13 | F 0.016 ± 0.083 | T 0.141 ± 0.088 | G 0.065 ± 0.07 | N -0.169 ± 0.2 | L -0.015 ± 0.072 | C -0.069 ± 0.1
D39: T -0.418 ± 0.21 | P -0.851 ± 0.33 | G -0.864 ± 0.13 | V -0.882 ± 0.18 | E -0.798 ± 0.17 | A -1.01 ± 0.14 | M -0.924 ± 0.36 | F -0.486 ± 0.49 | K -0.74 ± 0.5 | R -1.01 ± 0.084 | S -0.825 ± 0.077 | W -0.82 ± 0.2 | Q -0.958 ± 0.21 | Y -0.31 ± 0.46
N51: C 0.13 ± 0.089 | I -0.373 ± 0.25 | E 0.094 ± 0.065 | Q -0.129 ± 0.087 | H 0.208 ± 0.11 | A -0.025 ± 0.058 | M -0.232 ± 0.092 | P -0.425 ± 0.12 | F -0.398 ± 0.33 | G -0.034 ± 0.044 | K -0.076 ± 0.069 | L -0.261 ± 0.057
K30: L -0.169 ± 0.057 | A -0.195 ± 0.057 | Y 0.039 ± 0.086 | D -0.214 ± 0.11 | E -0.042 ± 0.072 | T -0.245 ± 0.11 | H -0.054 ± 0.086 | N -0.167 ± 0.1 | Q -0.208 ± 0.081 | G -0.576 ± 0.23 | W -0.293 ± 0.17 | R -0.05 ± 0.093 | C -0.077 ± 0.18 | V -0.047 ± 0.059 | P 0.246 ± 0.094 | M -0.092 ± 0.082 | F -0.21 ± 0.062 | I 0.245 ± 0.089
G34: N 0.138 ± 0.092 | A -0.074 ± 0.06 | I -0.143 ± 0.15 | V -0.032 ± 0.059 | L -0.083 ± 0.067 | P 0.01 ± 0.071 | Q -0.094 ± 0.064 | Y -0.164 ± 0.15 | S -0.129 ± 0.051 | W -0.445 ± 0.12 | K 0.024 ± 0.12 | H -0.101 ± 0.06 | D -0.085 ± 0.09 | R -0.06 ± 0.069 | E -0.06 ± 0.096 | T 0.014 ± 0.088 | C -0.284 ± 0.14 | M -0.11 ± 0.094
V28: T -0.486 ± 0.23 | W -0.793 ± 0.17
Y40: G -0.864 ± 0.085 | Q -0.312 ± 0.063 | S -0.284 ± 0.093 | M -0.336 ± 0.32 | D -0.711 ± 0.47 | E -0.419 ± 0.26

Reference: the Human Domainome abundance scans (Beltran et al. 2025)
